# From the supplement of paper PMC9112550, “Optimization of the antimicrobial peptide Bac7 by deep mutational scanning” (BMC Biology, 2022)
# Tested on: Escherichia coli TOP10
# Experiment: shrunken log2 fold change of peptide-encoding DNA abundance (4.5 h post-induction vs induction); higher = less antimicrobial activity (less host growth inhibition)
# Details: time post-induction: 4.5 h; library: site-saturation at positions 5, 18, 19, 20
# 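Further: peptides expressed intracellularly from a pBAD plasmid library in pooled LB shake-flask culture, induced with 0.3% L-arabinose, DNA abundance read by NGS, three biological replicates, DESeq2 with apeglm shrinkage.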
row,Sequence,shrunken log2 fold change
1,RRIRCRPPRLPRPRPRPRDQPRP,0.278
2,RRIRCRPPRLPRPRPRPRDWPRP,0.591
3,RRIRCRPPRLPRPRPRPRFFPRP,0.191
4,RRIRCRPPRLPRPRPRPRGHPRP,0.071
5,RRIRCRPPRLPRPRPRPRHEPRP,-0.117
6,RRIRCRPPRLPRPRPRPRHSPRP,-0.102
7,RRIRCRPPRLPRPRPRPRHWPRP,0.261
8,RRIRCRPPRLPRPRPRPRISPRP,-0.248
9,RRIRCRPPRLPRPRPRPRKLPRP,0.0902
10,RRIRCRPPRLPRPRPRPRKRPRP,0.456
11,RRIRCRPPRLPRPRPRPRLCPRP,0.427
12,RRIRCRPPRLPRPRPRPRPLPRP,0.319
13,RRIRCRPPRLPRPRPRPRPMPRP,0.443
14,RRIRCRPPRLPRPRPRPRPQPRP,0.776
15,RRIRCRPPRLPRPRPRPRQHPRP,-0.0138
16,RRIRCRPPRLPRPRPRPRRIPRP,-0.246
17,RRIRCRPPRLPRPRPRPRTDPRP,0.0321
18,RRIRCRPPRLPRPRPRPRTYPRP,-0.447
19,RRIRCRPPRLPRPRPRPRVSPRP,0.064
20,RRIRCRPPRLPRPRPRPRWPPRP,0.661
21,RRIRCRPPRLPRPRPRPRWSPRP,0.422
22,RRIRCRPPRLPRPRPRPRWYPRP,-0.134
23,RRIRCRPPRLPRPRPRPRYHPRP,-0.685
24,RRIRCRPPRLPRPRPRPRYMPRP,-0.402
25,RRIRCRPPRLPRPRPRPSEAPRP,0.125

row,Sequence,shrunken log2 fold change
1,RRIRCRPPRLPRPRPRPSGGPRP,-0.0862
2,RRIRCRPPRLPRPRPRPSHLPRP,-0.53
3,RRIRCRPPRLPRPRPRPSHQPRP,-1.04
4,RRIRCRPPRLPRPRPRPSKKPRP,-0.0938
5,RRIRCRPPRLPRPRPRPSKMPRP,-0.492
6,RRIRCRPPRLPRPRPRPSLDPRP,-0.203
7,RRIRCRPPRLPRPRPRPSLRPRP,-0.305
8,RRIRCRPPRLPRPRPRPSLSPRP,-0.429
9,RRIRCRPPRLPRPRPRPSLTPRP,-0.538
10,RRIRCRPPRLPRPRPRPSMAPRP,-0.224
11,RRIRCRPPRLPRPRPRPSNVPRP,-0.608
12,RRIRCRPPRLPRPRPRPSPVPRP,0.00196
13,RRIRCRPPRLPRPRPRPSPWPRP,0.0328
14,RRIRCRPPRLPRPRPRPSPYPRP,-0.302
15,RRIRCRPPRLPRPRPRPSTLPRP,-0.686
16,RRIRCRPPRLPRPRPRPSVDPRP,-0.139
17,RRIRCRPPRLPRPRPRPSVVPRP,-0.261
18,RRIRCRPPRLPRPRPRPSWQPRP,-0.0872
19,RRIRCRPPRLPRPRPRPSYKPRP,-0.572
20,RRIRCRPPRLPRPRPRPTAHPRP,0.181
21,RRIRCRPPRLPRPRPRPTDRPRP,0.15
22,RRIRCRPPRLPRPRPRPTEWPRP,0.063
23,RRIRCRPPRLPRPRPRPTFFPRP,0.114
24,RRIRCRPPRLPRPRPRPTGIPRP,0.287
25,RRIRCRPPRLPRPRPRPTGNPRP,0.048

row,Sequence,shrunken log2 fold change
1,RRIRCRPPRLPRPRPRPTGTPRP,0.0453
2,RRIRCRPPRLPRPRPRPTHPPRP,0.164
3,RRIRCRPPRLPRPRPRPTIGPRP,-0.0746
4,RRIRCRPPRLPRPRPRPTIRPRP,-0.312
5,RRIRCRPPRLPRPRPRPTLNPRP,-0.232
6,RRIRCRPPRLPRPRPRPTLPPRP,0.356
7,RRIRCRPPRLPRPRPRPTMGPRP,-0.136
8,RRIRCRPPRLPRPRPRPTNFPRP,-0.124
9,RRIRCRPPRLPRPRPRPTNMPRP,-0.47
10,RRIRCRPPRLPRPRPRPTNWPRP,-0.0072
11,RRIRCRPPRLPRPRPRPTPEPRP,0.284
12,RRIRCRPPRLPRPRPRPTPWPRP,0.49
13,RRIRCRPPRLPRPRPRPTQDPRP,0.805
14,RRIRCRPPRLPRPRPRPTRAPRP,0.632
15,RRIRCRPPRLPRPRPRPTRKPRP,-0.0442
16,RRIRCRPPRLPRPRPRPTSRPRP,-0.0338
17,RRIRCRPPRLPRPRPRPTTNPRP,0.0115
18,RRIRCRPPRLPRPRPRPTYGPRP,-0.0844
19,RRIRCRPPRLPRPRPRPVAMPRP,-0.125
20,RRIRCRPPRLPRPRPRPVATPRP,0.443
21,RRIRCRPPRLPRPRPRPVCNPRP,0.0532
22,RRIRCRPPRLPRPRPRPVEYPRP,-0.0499
23,RRIRCRPPRLPRPRPRPVFKPRP,-0.355
24,RRIRCRPPRLPRPRPRPVKYPRP,-0.596
25,RRIRCRPPRLPRPRPRPVLQPRP,1.24

row,Sequence,shrunken log2 fold change
1,RRIRCRPPRLPRPRPRPVMSPRP,-0.136
2,RRIRCRPPRLPRPRPRPVPTPRP,0.116
3,RRIRCRPPRLPRPRPRPVPWPRP,-0.139
4,RRIRCRPPRLPRPRPRPVQDPRP,0.0523
5,RRIRCRPPRLPRPRPRPVQWPRP,0.116
6,RRIRCRPPRLPRPRPRPVRQPRP,0.126
7,RRIRCRPPRLPRPRPRPVRTPRP,0.39
8,RRIRCRPPRLPRPRPRPVSEPRP,0.00852
9,RRIRCRPPRLPRPRPRPVTKPRP,0.217
10,RRIRCRPPRLPRPRPRPVVAPRP,0.319
11,RRIRCRPPRLPRPRPRPVVGPRP,-0.0604
12,RRIRCRPPRLPRPRPRPVWAPRP,0.351
13,RRIRCRPPRLPRPRPRPVWEPRP,0.176
14,RRIRCRPPRLPRPRPRPVYCPRP,-0.755
15,RRIRCRPPRLPRPRPRPWFWPRP,0.189
16,RRIRCRPPRLPRPRPRPWGHPRP,-0.092
17,RRIRCRPPRLPRPRPRPWHMPRP,-0.119
18,RRIRCRPPRLPRPRPRPWIVPRP,-0.0435
19,RRIRCRPPRLPRPRPRPWKCPRP,-0.0193
20,RRIRCRPPRLPRPRPRPWKGPRP,-0.0267
21,RRIRCRPPRLPRPRPRPWKIPRP,-0.268
22,RRIRCRPPRLPRPRPRPWKLPRP,-0.269
23,RRIRCRPPRLPRPRPRPWKVPRP,0.101
24,RRIRCRPPRLPRPRPRPWLDPRP,-0.273
25,RRIRCRPPRLPRPRPRPWMAPRP,-0.333

row,Sequence,shrunken log2 fold change
1,RRIRCRPPRLPRPRPRPWMFPRP,-0.453
2,RRIRCRPPRLPRPRPRPWMTPRP,-0.188
3,RRIRCRPPRLPRPRPRPWNEPRP,-0.705
4,RRIRCRPPRLPRPRPRPWNFPRP,-0.182
5,RRIRCRPPRLPRPRPRPWQYPRP,0.0686
6,RRIRCRPPRLPRPRPRPWRNPRP,-0.157
7,RRIRCRPPRLPRPRPRPWRQPRP,-0.167
8,RRIRCRPPRLPRPRPRPWSFPRP,-0.0435
9,RRIRCRPPRLPRPRPRPWVIPRP,-0.11
10,RRIRCRPPRLPRPRPRPWWAPRP,1.27
11,RRIRCRPPRLPRPRPRPWWNPRP,-0.752
12,RRIRCRPPRLPRPRPRPWWQPRP,0.0101
13,RRIRCRPPRLPRPRPRPYAGPRP,-0.513
14,RRIRCRPPRLPRPRPRPYAIPRP,-0.803
15,RRIRCRPPRLPRPRPRPYAKPRP,-0.671
16,RRIRCRPPRLPRPRPRPYAVPRP,-0.349
17,RRIRCRPPRLPRPRPRPYCNPRP,-1.19
18,RRIRCRPPRLPRPRPRPYCWPRP,-0.331
19,RRIRCRPPRLPRPRPRPYCYPRP,-0.669
20,RRIRCRPPRLPRPRPRPYDWPRP,-0.204
21,RRIRCRPPRLPRPRPRPYFIPRP,-1.18
22,RRIRCRPPRLPRPRPRPYFMPRP,-0.91
23,RRIRCRPPRLPRPRPRPYFPPRP,-0.513
24,RRIRCRPPRLPRPRPRPYGDPRP,-0.217
25,RRIRCRPPRLPRPRPRPYIAPRP,-0.762

row,Sequence,shrunken log2 fold change
1,RRIRCRPPRLPRPRPRPYIGPRP,-1.24
2,RRIRCRPPRLPRPRPRPYIRPRP,-1.22
3,RRIRCRPPRLPRPRPRPYKAPRP,-0.279
4,RRIRCRPPRLPRPRPRPYKKPRP,0.104
5,RRIRCRPPRLPRPRPRPYKMPRP,-1.66
6,RRIRCRPPRLPRPRPRPYKYPRP,-0.551
7,RRIRCRPPRLPRPRPRPYLVPRP,-0.584
8,RRIRCRPPRLPRPRPRPYMMPRP,-0.293
9,RRIRCRPPRLPRPRPRPYMWPRP,-0.913
10,RRIRCRPPRLPRPRPRPYNGPRP,-0.216
11,RRIRCRPPRLPRPRPRPYPIPRP,-0.198
12,RRIRCRPPRLPRPRPRPYQFPRP,-0.0218
13,RRIRCRPPRLPRPRPRPYRCPRP,-0.282
14,RRIRCRPPRLPRPRPRPYRTPRP,-0.132
15,RRIRCRPPRLPRPRPRPYTMPRP,-0.382
16,RRIRCRPPRLPRPRPRPYTRPRP,-0.669
17,RRIRCRPPRLPRPRPRPYVFPRP,-0.362
18,RRIRCRPPRLPRPRPRPYVGPRP,-0.163
19,RRIRCRPPRLPRPRPRPYWIPRP,-1.17
20,RRIRCRPPRLPRPRPRPYWPPRP,-0.158
21,RRIRCRPPRLPRPRPRPYYEPRP,-1.27
22,RRIRCRPPRLPRPRPRPYYFPRP,-1.08
23,RRIRDRPPRLPRPRPRPAAQPRP,1.65
24,RRIRDRPPRLPRPRPRPACEPRP,0.58
25,RRIRDRPPRLPRPRPRPACNPRP,0.0741
